Legend:
human skin explants = assay: Human skin explant (EPIDERM-FT) punch wound healing; assay type: cell-based; settings: explants treated with Agrin siRNA #1; 20 μg sAgrin in ointment on days 2, 4, 6
Excerpt: Human epidermal keratinocyte cell line HaCaT was maintained in Dulbecco's modified Eagle's Medium (DMEM) (Gibco) containing 10% fetal bovine serum (FBS) with Penicillin and Streptomycin (Gibco Cat #15140148) antibiotics. The human foreskin normal fibroblasts (BJ) obtained from ATCC (ATCC® CRL-2522™) were passaged in DMEM (Gibco) with antibiotics. Normal primary adult epidermal keratinocytes (HEK) purchased from CELL Applications, Inc., (Cat #C-12003) were maintained in manufacturer provided keratinocyte growth medium as recommended. Primary keratinocytes from C57BL mouse strain were purchased from CellBiologics (Cat #C57-6066K) and maintained as per manufacturer recommended Epithelial cell growth medium (Cat #M6621, CellBiologics). The mouse primary dermal fibroblasts were isolated from C57BL mouse strain (Cat #m-GFP-6067), and cultured in complete fibroblast medium (CellBiologics, Cat #M2267). […]
Human skin equivalents and mice skin tissues were harvested, embedded, and subjected to routine histology using Hematoxylin and Eosin. […] Quantification of collagen as a marker for ECM deposition was done by picrosirius red staining of paraffin embedded mouse skin tissues, as per previously published protocol.

keratinocytes = assay: BrdU incorporation after wound scratch (leader/follower cells); assay type: cell-based; settings: Agrin knockdown; 10 μg/ml sAgrin 18 h; 4 h post-scratch
Experimental: FIG. 6 Agrin impacts keratinocyte proliferation following wound injury. (a) Control, Agrin depleted indicated keratinocytes and those rescued with 10 μg/ml sAgrin for 18 h were labelled with 20 μM BrdU for 12 hours, before proceeding with wound-scratch assays. The cells were fixed at 4 hours post-scratching and stained with an Anti-BrdU and K17 antibodies. Nuclei were counterstained with DAPI. Representative confocal images at the wound edge (leader) and at-least 200 μm away from the wound margin (followers) are shown. The relative percentage of proliferating cells are shown for each condition graphically (n=5-6 images analyzed for each conditions from three replicates, Students ‘t’ test, **p=0.006, *p-0.003, p=0.005, ***p=0.0001, respectively). Scale bar: 10 μm. (b-c) Schematic showing the states of proliferation at the migrating wound margins. Immunohistological sections stained for Ki67 in control and Agrin depleted wound edges and beds at day 7 post-wounding. Filled arrows denote the base of epidermis (Ep), while arrows represent the wound margin. Asterisk (*) denotes the loss of Ki67 proliferation at the wound margins. Scale bar: 100 μm. The percentage of proliferating cells was quantified using Image J (n=4 sections analyzed from two individual mice, Students ‘t’ tests, **p=0.001).

B1: sAgrin: C-terminus recombinant Agrin fragment containing 8 amino acid 'Z8' insert and LG3 domain (SEQ ID NO: 7), His-tagged, expressed in E. coli (protein)
chain: DTLAFDGRTFVEYLNAVTESELANEIPVEKALQSNHFELSLRTEATQGLVLWSGKATERADYVALAIVDGHLQLSYNLGSQPVVLRSTVPVNTNRWLRVVAHREQREGSLQVGNEAPVTGSSPLGATQLDTDGALWLGGLPELPVGPALPKAYGTGFVGCLRDVVVGRHPLHLLEDAVTKPELRPCPTP
modifications: His tag
In the case of B1, the “wound healing and migration of keratinocytes (rescue)” value (human skin explants) is reported as “significantly rescued the wound healing and the migration of keratinocytes” and the “proliferation of follower cells away from the wound margin” value (keratinocytes) is reported as “rescued”.
